Columns and labels:
[1] = target: the molecule itself; experiment: SDS-PAGE with western blot (anti-His tag antibody); purified His-tagged WT αB on an SDS-PAGE gel; 50 kDa band beside the monomer, both immunoreactive with the anti-His antibody
[2] = target: the molecule itself; experiment: SEC-MALS; multiangle laser light scattering instrument (Wyatt) coupled to an HPLC system, called dynamic light scattering (MALS) by the paper; samples in 50 mM sodium phosphate pH 7.8, filtered through 0.22 um; 18 angles; absolute molar mass of each protein alone

Row | Protein | stoichiometry N [1] | binding result [2]
1 | wild type αB-crystallin (natural protein, human, UniProt P02511 1-175, looked up, human αB-crystallin, wild type; Subcloned into pET 100D TOPO; the vector may add further N-terminal residues besides the His-tag; also called WT αB; not shown: His6, N-terminal, kept) MDIAIHHPWIRRPFFPFHSPSRLFDQFFGEHLLESDLFPTSTSLSPFYLRPPSFLRAPSWFDTGLSEMRLEKDRFSVNLDVKHFSPEELKVKVLGDVIEVHGKHEERQDEHGFISREFHRKYRIPADVDPLTITSSLSSDGVLTVNGPRKQVSGPERTIPITREEKPAVTAAPKK | 2 | 
2 | αB-crystallin core domain (residues 67-146) (domain or fragment, human, UniProt P02511 67-146, looked up, human αB-crystallin, core domain, residues 67-146; The pET 100D TOPO vector may add further N-terminal residues besides the His-tag; also called αB CD; not shown: His6, N-terminal, kept) EMRLEKDRFSVNLDVKHFSPEELKVKVLGDVIEVHGKHEERQDEHGFISREFHRKYRIPADVDPLTITSSLSSDGVLTVN |  | binds
3 | αB-crystallin NH2-terminal domain (residues 1-66) (domain or fragment, human, UniProt P02511 1-66, looked up, human αB-crystallin, NH2-terminal domain, residues 1-66; The pET 100D TOPO vector may add further N-terminal residues besides the His-tag; also called αB NTD; not shown: His6, N-terminal, kept) MDIAIHHPWIRRPFFPFHSPSRLFDQFFGEHLLESDLFPTSTSLSPFYLRPPSFLRAPSWFDTGLS |  | binds

From paper PMC3172050, “Structural and functional properties of NH2-terminal domain, core domain, and COOH-terminal extension of αA- and αB-crystallins” (Molecular Vision, 2011)
